The record followed here is patent US20230201364A1.

B1: CMP-016 (LZM-009 conjugated to CMP-003, DAR 1, K248) (antibody)
VH: QVQLVQSGAEVKKPGASVKVSCKASGYTFTSYYMYWVRQAPGQGLEWMGGVNPSNGGTNFNEKFKSRVTITADKSTSTAYMELSSLRSEDTAVYYCARRDYRYDMGFDYWGQGTTVTVSS
VL: EIVLTQSPATLSLSPGERATISCRASKGVSTSGYSYLHWYQQKPGQAPRLLIYLASYLESGVPARFSGSGSGTDFTLTISSLEPEDFATYYCQHSRELPLTFGTGTKVEIK
chain: APTSSSTKKTQLQLEHLLLDLQXILNGINNYKNPKLTRXLXYKFYXPKKATELKHLQCLEEELKPLEEVLXLAQSKNFHLRPRDLISNINVIVLELKGSETTFXCEYADETATIVEFLNRWITFSQSIISTLT
modifications: not fully specified; Nle at 23, 39, 46 and Hse at 41, 71, 104 (as in SEQ ID NO: 3); ~0.5 kDa PEG on Y45; 0.5 kDa PEG on F42Y whose azide end is joined to the DBCO linker of the antibody; the heavy chain carries a chemical linker to CMP-003 on Lys K248 (Eu numbering) of the Fc; DAR 1
B2: CMP-102 (LZM-009 conjugated to CMP-003, DAR 1, K288) (antibody)
VH: B1 VH
VL: B1 VL
chain: B1 chain
modifications: not fully specified; Nle at 23, 39, 46 and Hse at 41, 71, 104 (as in SEQ ID NO: 3); ~0.5 kDa PEG on Y45; 0.5 kDa PEG on F42Y whose azide end is joined to the DBCO linker of the antibody; the heavy chain carries a chemical linker to CMP-003 on Lys K288 (Eu numbering) of the Fc; DAR 1
B3: CMP-028 (LZM-009 conjugated to CMP-003, DAR 1.9, K288) (antibody)
VH: B1 VH
VL: B1 VL
chain: B1 chain
modifications: not fully specified; Nle at 23, 39, 46 and Hse at 41, 71, 104 (as in SEQ ID NO: 3); ~0.5 kDa PEG on Y45; 0.5 kDa PEG on F42Y whose azide end is joined to the DBCO linker of the antibody; the heavy chain carries a chemical linker to CMP-003 on Lys K288 (Eu numbering) of the Fc; DAR 1.9

Sequence of Fc gamma receptor IIb (FcgRIIb, CD32b) (human) (P31994 46-217 limits assumed): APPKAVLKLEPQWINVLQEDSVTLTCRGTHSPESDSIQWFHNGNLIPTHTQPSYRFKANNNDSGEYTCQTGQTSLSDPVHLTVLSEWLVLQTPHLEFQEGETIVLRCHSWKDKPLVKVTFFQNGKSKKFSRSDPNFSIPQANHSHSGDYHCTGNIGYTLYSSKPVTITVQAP
Sequence of recombinant biotinylated human Fc gamma receptor I (FcγRI/CD64) (human) (P12314 16-288 limits assumed): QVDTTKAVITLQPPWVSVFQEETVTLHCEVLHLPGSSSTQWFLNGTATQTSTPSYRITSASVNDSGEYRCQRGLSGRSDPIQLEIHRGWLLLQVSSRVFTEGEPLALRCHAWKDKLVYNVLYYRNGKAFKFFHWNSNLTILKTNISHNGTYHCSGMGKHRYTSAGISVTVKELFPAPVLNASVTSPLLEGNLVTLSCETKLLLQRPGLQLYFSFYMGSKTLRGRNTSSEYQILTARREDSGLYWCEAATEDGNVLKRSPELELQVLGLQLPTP

The first assay addresses recombinant biotinylated human Fc gamma receptor I (FcγRI/CD64) (human) (UniProt P12314). Nature of the assay: AlphaLISA competition; test molecule titrated against human IgG Fc acceptor beads for biotinylated FcγRI.
The term Kd denotes the concentration at which binding is half-saturated. With B1, the Kd stood at 3.81 nM.
Still for that read-out and setting: with B2 the figure was 2.3 nM; with B3, 12 nM.

Another assay has as its target Fc gamma receptor IIb (FcgRIIb, CD32b) (human) (UniProt P31994). Briefly: AlphaLISA competition or analogous assay for FcγRIIb (not described). (Bead proximity is the source of the signal in Alpha formats.)
As for B1, the Kd is 4710 nM.
Same read-out and setting: as for B2, the figure is 6680 nM; as for B3, 3340 nM.

The target in the next assay is recombinant biotinylated human neonatal Fc receptor (FcRn) (human) (UniProt P55899). Nature of the assay: AlphaLISA competition at pH 6; test molecule titrated against human IgG acceptor beads for biotinylated human FcRn.
Sequence of recombinant biotinylated human neonatal Fc receptor (FcRn) (human) (P55899 24-297 limits assumed, chain 1 of 2): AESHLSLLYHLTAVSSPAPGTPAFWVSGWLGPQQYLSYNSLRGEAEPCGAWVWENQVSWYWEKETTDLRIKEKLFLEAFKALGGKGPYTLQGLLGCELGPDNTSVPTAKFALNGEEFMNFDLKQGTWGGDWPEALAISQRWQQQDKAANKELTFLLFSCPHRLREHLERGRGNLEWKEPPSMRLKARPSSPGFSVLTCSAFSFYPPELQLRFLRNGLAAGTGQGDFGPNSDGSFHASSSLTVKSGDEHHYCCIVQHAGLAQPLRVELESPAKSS
Sequence of recombinant biotinylated human neonatal Fc receptor (FcRn) (human) (chain, as listed by the source limits assumed, chain 2 of 2): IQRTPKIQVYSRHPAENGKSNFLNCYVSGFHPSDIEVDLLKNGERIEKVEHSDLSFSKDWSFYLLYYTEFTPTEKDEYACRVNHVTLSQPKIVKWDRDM
On to B1, for which the dissociation constant (Kd) is 25.3 nM.
In the case of B2, the Kd stood at 10.7 nM.
Consider B3, for which the Kd came out at 27.1 nM.

A further assay deals with recombinant biotinylated human Fc gamma receptor IIIa (FcγRIIIa/CD16) (human) (UniProt P08637). Briefly: AlphaLISA competition; test molecule titrated against human IgG Fc acceptor beads for biotinylated FcγRIIIa.
Sequence of recombinant biotinylated human Fc gamma receptor IIIa (FcγRIIIa/CD16) (human) (P08637 17-208 limits assumed): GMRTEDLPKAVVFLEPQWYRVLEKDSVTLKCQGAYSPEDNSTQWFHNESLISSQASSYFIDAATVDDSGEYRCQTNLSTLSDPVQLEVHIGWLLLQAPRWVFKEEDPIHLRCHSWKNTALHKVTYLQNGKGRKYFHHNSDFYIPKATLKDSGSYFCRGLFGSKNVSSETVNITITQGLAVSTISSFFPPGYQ
As to B1, the Kd was found to be 481 nM.
The same measure, in the same setting: with B2 the figure was 272 nM; with B3, 5410 nM.

For the next assay, the target named is recombinant biotinylated human Fc gamma receptor IIa (FcγRIIa/CD32a 167H) (human) (UniProt P12318). Nature of the assay: AlphaLISA competition; test molecule titrated against human IgG Fc acceptor beads for biotinylated FcγRIIa.
Sequence of recombinant biotinylated human Fc gamma receptor IIa (FcγRIIa/CD32a 167H) (human) (P12318 36-218 limits assumed): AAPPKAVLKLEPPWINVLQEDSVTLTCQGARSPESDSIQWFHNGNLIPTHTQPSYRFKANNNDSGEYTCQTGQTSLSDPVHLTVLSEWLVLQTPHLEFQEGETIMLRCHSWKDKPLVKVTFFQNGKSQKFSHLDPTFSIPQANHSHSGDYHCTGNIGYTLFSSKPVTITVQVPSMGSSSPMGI
Take B1: the Kd stood at 1140 nM.
With B2, the Kd stood at 1180 nM.
Still for that read-out and setting: as for B3, the figure is 1870 nM.
